Where a chain is given by its changes, count along the chain named.
B1: <IGF-1R> F13B5 Fab fragment (affinity-matured <IGF-1R> HUMAB-Clone 18) (Fab, V domains shown)
VH: QVELVESGGGVVQPGRSQRLSCAASGFTFSSYGMHWVRQAPGKGLEWVAIIWFDGSSTYYADSVRGRFTISRDNSKNTLYLQMNSLRAEDTAVYFCARELGRRYFDLWGRGTLVSVSS
VL: EIVLTQSPATLSLSPGERATLSCRASQSVSSYLAWYQQKPGQAPRLLIYQASKRATGIPARFSGSGSGTDFTLTISSLEPEDFAVYYCQQRSKYPPWTFGQGTKVESK
B2: <IGF-1R> L39D7 Fab fragment (affinity-matured <IGF-1R> HUMAB-Clone 18) (Fab, V domains shown)
VH: B1 VH
VL: B1 VL with S31K, Y32Q, Q50N
B3: <IGF-1R> L31D11 Fab fragment (affinity-matured <IGF-1R> HUMAB-Clone 18) (Fab, V domains shown)
VH: B1 VH
VL: B1 VL with Q27R, S30Y, Y32S, Q50K, K53S, Y94W
B4: <IGF-1R> L31D7 Fab fragment (affinity-matured <IGF-1R> HUMAB-Clone 18) (Fab, V domains shown)
VH: B1 VH
VL: B1 VL with S30I, S31Q, Y32S, Q50R, Y94W
B5: <IGF-1R> L37F7 Fab fragment (affinity-matured <IGF-1R> HUMAB-Clone 18) (Fab, V domains shown)
VH: B1 VH
VL: B1 VL with Y32Q, Q50K, S52T, K53N

The binders below were run against human IGF-1R (soluble, analyte in SPR) (human) (UniProt P08069) (assay: SPR (ProteOn XPR36), 25 C, Fab captured by anti-Fab, IGF-1R as analyte).
Work on B1 yielded a Kd of 1.47 nM, a koff of 0.00025 s⁻¹ and a kon of 170000 M⁻¹ s⁻¹. For B2, the Kd was 0.769 nM, the koff was 0.00027 s⁻¹ and the kon was 351000 M⁻¹ s⁻¹. In the case of B3, the Kd is reported as 0.269 nM, the koff is reported as 0.000153 s⁻¹ and the kon is reported as 571000 M⁻¹ s⁻¹. Binder B4 has a Kd of 1.03 nM, a koff of 0.000538 s⁻¹ and a kon of 523000 M⁻¹ s⁻¹. In the case of B5, the Kd is reported as 1.02 nM, the koff is reported as 0.000237 s⁻¹ and the kon is reported as 232000 M⁻¹ s⁻¹.

The binders below were run against human IGF-1R (soluble, analyte in SPR) (human) (UniProt P08069) (assay: SPR (ProteOn XPR36), 25 C, Fab captured by anti-Fab; ratio against parental Ak18).
B1 gave a x-fold increase of binding affinity (=KD (unmodified AK18)/KD (CDR-modified)) of 12.4 fold. Binder B2 has a x-fold increase of binding affinity (=KD (unmodified AK18)/KD (CDR-modified)) of 23.8 fold. B3 showed a x-fold increase of binding affinity (=KD (unmodified AK18)/KD (CDR-modified)) of 68 fold. With B4 the x-fold increase of binding affinity (=KD (unmodified AK18)/KD (CDR-modified)) was 17.8 fold. Binder B5 has a x-fold increase of binding affinity (=KD (unmodified AK18)/KD (CDR-modified)) of 17.9 fold.

From patent publication US20140193415A1
